Assay results reported in patent publication US20110256127A1 (Genentech, published 2011).
Values joined by “and” are separate entries in the source; they are usually repeats but may differ in a detail not shown here. Equal entries are not always repeated.

T1: LRP6 (human; form used in the assay not stated) (human, UniProt O75581 20-1253, limits assumed)
T1 construct: probably an E3-E4 fragment for SPR
T1 sequence: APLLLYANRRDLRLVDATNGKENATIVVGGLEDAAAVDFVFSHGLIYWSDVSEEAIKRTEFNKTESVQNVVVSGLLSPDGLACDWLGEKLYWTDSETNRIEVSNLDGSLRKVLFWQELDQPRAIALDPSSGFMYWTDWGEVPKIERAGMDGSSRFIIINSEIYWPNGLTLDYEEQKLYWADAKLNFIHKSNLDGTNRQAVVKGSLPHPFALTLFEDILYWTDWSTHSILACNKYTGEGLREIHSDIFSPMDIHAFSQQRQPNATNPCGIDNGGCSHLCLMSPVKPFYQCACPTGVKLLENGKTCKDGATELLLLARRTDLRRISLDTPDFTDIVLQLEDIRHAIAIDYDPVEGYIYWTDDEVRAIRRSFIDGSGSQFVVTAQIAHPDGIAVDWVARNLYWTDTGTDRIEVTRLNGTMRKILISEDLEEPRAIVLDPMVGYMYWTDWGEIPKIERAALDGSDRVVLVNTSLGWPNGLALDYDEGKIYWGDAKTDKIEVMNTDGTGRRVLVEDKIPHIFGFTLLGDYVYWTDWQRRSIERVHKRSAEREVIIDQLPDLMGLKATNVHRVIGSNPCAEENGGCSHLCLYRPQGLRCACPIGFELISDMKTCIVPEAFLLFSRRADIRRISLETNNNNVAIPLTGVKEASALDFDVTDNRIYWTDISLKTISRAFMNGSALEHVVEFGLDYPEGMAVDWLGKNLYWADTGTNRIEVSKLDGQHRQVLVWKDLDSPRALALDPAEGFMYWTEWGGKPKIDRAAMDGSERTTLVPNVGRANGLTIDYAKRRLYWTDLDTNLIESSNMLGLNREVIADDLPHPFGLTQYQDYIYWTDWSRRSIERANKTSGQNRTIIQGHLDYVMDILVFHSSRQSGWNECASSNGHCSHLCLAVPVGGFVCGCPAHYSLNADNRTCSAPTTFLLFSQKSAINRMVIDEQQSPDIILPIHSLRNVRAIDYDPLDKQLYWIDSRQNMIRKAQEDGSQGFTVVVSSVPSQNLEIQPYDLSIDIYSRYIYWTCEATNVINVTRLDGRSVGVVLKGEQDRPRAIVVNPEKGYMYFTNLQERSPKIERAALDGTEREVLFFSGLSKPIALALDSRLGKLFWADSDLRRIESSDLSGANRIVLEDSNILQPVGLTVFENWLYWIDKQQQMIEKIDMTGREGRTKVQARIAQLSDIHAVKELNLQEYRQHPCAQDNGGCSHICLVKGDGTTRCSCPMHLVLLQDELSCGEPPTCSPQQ

T2: His-tagged LRP6.E3-E4 protein (human, UniProt O75581 629-1244)
T2 construct: also called LRP6.E3-4-His; printed once as LRP3.E3-E4; not shown: His tag
T2 sequence: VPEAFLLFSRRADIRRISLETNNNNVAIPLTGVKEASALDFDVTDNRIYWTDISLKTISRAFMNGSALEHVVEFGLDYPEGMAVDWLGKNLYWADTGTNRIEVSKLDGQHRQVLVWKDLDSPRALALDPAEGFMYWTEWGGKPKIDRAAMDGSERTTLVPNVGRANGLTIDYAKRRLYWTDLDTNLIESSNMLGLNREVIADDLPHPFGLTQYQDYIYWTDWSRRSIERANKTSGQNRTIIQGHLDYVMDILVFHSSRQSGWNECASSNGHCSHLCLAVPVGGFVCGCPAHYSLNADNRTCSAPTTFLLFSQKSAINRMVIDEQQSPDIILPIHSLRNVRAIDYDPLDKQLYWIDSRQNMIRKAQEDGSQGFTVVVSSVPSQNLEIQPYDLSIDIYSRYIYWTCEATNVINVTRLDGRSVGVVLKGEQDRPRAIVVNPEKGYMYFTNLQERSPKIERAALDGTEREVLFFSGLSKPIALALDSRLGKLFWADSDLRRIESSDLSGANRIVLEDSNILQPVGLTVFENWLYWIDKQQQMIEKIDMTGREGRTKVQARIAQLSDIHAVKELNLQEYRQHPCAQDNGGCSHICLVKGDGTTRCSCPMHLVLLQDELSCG

T3: LRP6.E3-E4 fragment (biotinylated, His-tagged) (Homo sapiens (Human), UniProt O75581 629-1244, biotinylated (AviTag system))
T3 construct: BLI antigen from baculovirus-infected insect cells; also called LRP6.E3-E4 protein; not shown: His tag and AviTag
T3 sequence: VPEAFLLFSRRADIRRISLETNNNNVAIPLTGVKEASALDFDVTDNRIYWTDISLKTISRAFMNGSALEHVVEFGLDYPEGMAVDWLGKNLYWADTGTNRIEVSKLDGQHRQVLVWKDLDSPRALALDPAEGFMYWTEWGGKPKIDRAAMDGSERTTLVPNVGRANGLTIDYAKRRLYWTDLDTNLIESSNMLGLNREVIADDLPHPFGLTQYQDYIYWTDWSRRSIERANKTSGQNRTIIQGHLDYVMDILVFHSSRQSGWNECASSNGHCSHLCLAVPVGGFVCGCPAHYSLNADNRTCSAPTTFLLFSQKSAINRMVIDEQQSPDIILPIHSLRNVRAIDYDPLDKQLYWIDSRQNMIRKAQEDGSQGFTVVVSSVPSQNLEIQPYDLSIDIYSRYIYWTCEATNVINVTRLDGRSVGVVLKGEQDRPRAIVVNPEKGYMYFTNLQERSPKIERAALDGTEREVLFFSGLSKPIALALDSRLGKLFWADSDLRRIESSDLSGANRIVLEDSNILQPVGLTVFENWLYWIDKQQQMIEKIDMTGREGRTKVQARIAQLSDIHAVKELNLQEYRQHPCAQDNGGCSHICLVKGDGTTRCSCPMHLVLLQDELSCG


Legend:
[1] = biological target: T1, LRP6 (human; form used in the assay not …); assay: SPR (BIAcore), full length IgG; LRP6 construct not stated; affinity-matured clone, full length human IgG
LRP6 on HEK293 cells = LRP6 on HEK293 cells (human, UniProt O75581 20-1613); assay: cell-based or functional assay
LRP6.E1-E2-Fc = LRP6.E1-E2-Fc (human); assay: ELISA
LRP6.E3-E4-Fc = biological target: T4, LRP6.E3-E4-Fc (human); assay: ELISA
T4 construct: also called LRP6.E3-4-Fc

[2] = biological target: T2, His-tagged LRP6.E3-E4 protein; assay: phage competition ELISA, phage-displayed clone
[3] = biological target: T3, LRP6.E3-E4 fragment (biotinylated, …); assay: biolayer interferometry, immobilized LRP6 E3-E4 fragment; Wnt3a at 200 nM; association then dissociation phase
Description: Biolayer interferometry was performed as previously described (Bourhis et al., 2010). Briefly, biotinylated, His-tagged LRP6 proteins were purified from baculovirus-infected insect cells using the AviTag system (GeneCopoeia). Binding kinetics were measured on the Octet RED System (ForteBio) using Streptavidin High Binding FA Biosensors loaded with 20 μg/ml LRP6 protein.
In these assays, antibody binding to LRP6 protein was allowed to reach equilibrium, and the subsequent wavelength shift in the interference pattern is shown for association and dissociation phases of Wnt protein binding.

Sequence of LRP6.E1-E2-Fc (human) (chain, as listed by the source limits assumed): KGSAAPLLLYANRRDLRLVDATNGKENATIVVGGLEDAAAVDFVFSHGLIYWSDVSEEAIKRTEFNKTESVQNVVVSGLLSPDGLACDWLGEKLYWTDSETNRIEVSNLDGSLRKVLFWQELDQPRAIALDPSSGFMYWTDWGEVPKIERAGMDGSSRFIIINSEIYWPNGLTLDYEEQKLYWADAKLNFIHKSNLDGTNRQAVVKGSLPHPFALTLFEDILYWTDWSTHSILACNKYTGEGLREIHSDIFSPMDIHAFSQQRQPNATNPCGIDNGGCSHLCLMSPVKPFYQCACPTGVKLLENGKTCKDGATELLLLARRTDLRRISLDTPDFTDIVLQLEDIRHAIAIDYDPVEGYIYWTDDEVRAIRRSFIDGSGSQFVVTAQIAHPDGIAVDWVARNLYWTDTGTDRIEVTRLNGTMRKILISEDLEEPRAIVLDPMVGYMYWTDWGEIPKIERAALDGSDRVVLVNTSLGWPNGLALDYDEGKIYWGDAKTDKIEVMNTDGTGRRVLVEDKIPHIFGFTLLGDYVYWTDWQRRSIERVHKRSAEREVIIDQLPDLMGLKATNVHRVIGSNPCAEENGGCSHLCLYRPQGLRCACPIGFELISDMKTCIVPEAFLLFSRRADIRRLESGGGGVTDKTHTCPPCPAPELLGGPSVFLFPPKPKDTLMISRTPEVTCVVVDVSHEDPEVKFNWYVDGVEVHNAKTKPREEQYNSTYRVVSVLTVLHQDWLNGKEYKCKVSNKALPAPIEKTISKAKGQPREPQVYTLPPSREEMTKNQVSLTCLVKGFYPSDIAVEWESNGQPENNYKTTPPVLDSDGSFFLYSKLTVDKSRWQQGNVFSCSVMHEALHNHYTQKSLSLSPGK
T4 sequence (chain, as listed by the source limits assumed): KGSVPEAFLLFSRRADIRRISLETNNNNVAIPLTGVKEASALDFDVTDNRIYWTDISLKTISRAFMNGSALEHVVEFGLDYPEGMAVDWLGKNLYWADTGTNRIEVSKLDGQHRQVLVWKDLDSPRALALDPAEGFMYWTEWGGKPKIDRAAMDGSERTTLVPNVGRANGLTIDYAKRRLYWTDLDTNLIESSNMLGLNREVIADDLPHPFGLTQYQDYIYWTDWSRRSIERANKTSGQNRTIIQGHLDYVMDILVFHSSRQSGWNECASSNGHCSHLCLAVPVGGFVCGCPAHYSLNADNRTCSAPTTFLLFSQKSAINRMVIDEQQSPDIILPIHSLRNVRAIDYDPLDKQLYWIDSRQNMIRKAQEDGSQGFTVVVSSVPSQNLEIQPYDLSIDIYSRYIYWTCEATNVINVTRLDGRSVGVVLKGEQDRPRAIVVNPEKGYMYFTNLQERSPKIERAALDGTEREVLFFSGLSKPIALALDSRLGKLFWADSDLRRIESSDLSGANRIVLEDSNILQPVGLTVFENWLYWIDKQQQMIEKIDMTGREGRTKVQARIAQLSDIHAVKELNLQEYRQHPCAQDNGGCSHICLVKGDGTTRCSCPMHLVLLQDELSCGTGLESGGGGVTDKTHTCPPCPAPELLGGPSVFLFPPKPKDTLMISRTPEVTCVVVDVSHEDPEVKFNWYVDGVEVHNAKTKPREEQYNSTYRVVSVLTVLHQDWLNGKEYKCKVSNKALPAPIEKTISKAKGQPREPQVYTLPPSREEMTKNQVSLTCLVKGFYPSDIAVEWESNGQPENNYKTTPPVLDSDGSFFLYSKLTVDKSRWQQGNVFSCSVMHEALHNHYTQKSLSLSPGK

Binder | binding result (LRP6.E1-E2-Fc) | binding result (LRP6.E3-E4-Fc) | also measured
YW211.31.57 antibody (antibody, human IgG1, kappa, V domains shown) VH: EVQLVESGGGLVQPGGSLRLSCAASGFTFTSYYISWVRQAPGKGLEWVAEISPYSGSTYYADSVKGRFTISADTSKNTAYLQMNSLRAEDTAVYYCALRARPPIRLYPRGSVMDYWGQGTLVTVSS VL: DIQMTQSPSSLSASVGDRVTITCRASQDVSTAVAWYQQKPGKAPKLLIYSASFLYSGVPSRFSGSGSGTDFTLTISSLQPEDFATYYCQQSYTLPTTFGQGTKVEIKR |  |  | Kd [1]: 0.27 nM; IC50, inhibition of signaling in Wnt3a-stimulated HEK293 cells (LRP6 on HEK293 cells): ~0.1 µg/ml and ~0.6 nM
YW211.33 antibody (antibody, V domains shown) VH: EVQLVESGGGLVQPGGSLRLSCAASGFTFSGSSISWVRQAPGKGLEWVGVISPSSGATYYADSVKGRFTISADTSKNTAYLQMNSLRAEDTAVYYCARWPAGAFLGYYGMDYWGQGTLVTVSS VL: DIQMTQSPSSLSASVGDRVTITCRASQDVSTAVAWYQQKPGKAPKLLIYSASFLYSGVPSRFSGSGSGTDFTLTISSLQPEDFATYYCQQSYTTPPTFGQGTKVEIKR | no binding | binds | 
YW211.12 antibody (antibody, V domains shown) VH: EVQLVESGGGLVQPGGSLRLSCAASGFTFTGNDIHWVRQAPGKGLEWVGRIYPYGGYTDYADSVKGRFTISADTSKNTAYLQMNSLRAEDTAVYYCAKEVTYHLFDYWGQGTLVTVSS VL: DIQMTQSPSSLSASVGDRVTITCRASQDVSTAVAWYQQKPGKAPKLLIYSASFLYSGVPSRFSGSGSGTDFTLTISSLQPEDFATYYCQQSYTTPPTFGQGTKVEIKR | no binding | binds | 
YW211.03 antibody (antibody, V domains shown) VH: EVQLVESGGGLVQPGGSLRLSCAASGFTFTGYWIHWVRQAPGKGLEWVGTISPAGGSTDYADSVKGRFTISADTSKNTAYLQMNSLRAEDTAVYYCARTDWRFHHAGEYAMDYWGQGTLVTVSS VL: DIQMTQSPSSLSASVGDRVTITCRASQDVSTAVAWYQQKPGKAPKLLIYSASFLYSGVPSRFSGSGSGTDFTLTISSLQPEDFATYYCQQSYTTPPTFGQGTKVEIKR | no binding | binds | 
YW211.11 antibody (antibody, V domains shown) VH: EVQLVESGGGLVQPGGSLRLSCAASGFTFTNYDIHWVRQAPGKGLEWVASIYPAGGDTDYADSVKGRFTISADTSKNTAYLQMNSLRAEDTAVYYCARSPGWALRGAMDYWGQGTLVTVSS VL: DIQMTQSPSSLSASVGDRVTITCRASQDVSTAVAWYQQKPGKAPKLLIYSASFLYSGVPSRFSGSGSGTDFTLTISSLQPEDFATYYCQQSYTTPPTFGQGTKVEIKR | no binding | binds | 
YW211.08 antibody (antibody, V domains shown) VH: EVQLVESGGGLVQPGGSLRLSCAASGFTFTDYWIHWVRQAPGKGLEWVAGISPDGGSTYYADSVKGRFTISADTSKNTAYLQMNSLRAEDTAVYYCARWSYISRYFSSVMDYWGQGTLVTVSS VL: DIQMTQSPSSLSASVGDRVTITCRASQDVSTAVAWYQQKPGKAPKLLIYSASFLYSGVPSRFSGSGSGTDFTLTISSLQPEDFATYYCQQSYTTPPTFGQGTKVEIKR | no binding | binds | 
YW211.31.11 antibody (antibody, V domains shown) VH: EVQLVESGGGLVQPGGSLRLSCAASGFTFGFYYLSWVRQAPGKGLEWVAEISPYSGSTYYADSVKGRFTISADTSKNTAYLQMNSLRAEDTAVYYCALRARPPIRLHPRGSVMDYWGQGTLVTVSS VL: DIQMTQSPSSLSASVGDRVTITCRASQDVSTAVAWYQQKPGKAPKLLIYSASFLYSGVPSRFSGSGSGTDFTLTISSLQPEDFATYYCQQSYAIPTTFGQGTKVEIKR |  |  | binding result [2]: binds
YW211.31.35 antibody (antibody, V domains shown) VH: EVQLVESGGGLVQPGGSLRLSCAASGFTFGFYYISWVRQAPGKGLEWVAEISPYSGSTYYADSVKGRFTISADTSKNTAYLQMNSLRAEDTAVYYCALRARPPIRLHPRGSVMDYWGQGTLVTVSS VL: DIQMTQSPSSLSASVGDRVTITCRASQDVSTAVAWYQQKPGKAPKLLIYSASFLYSGVPSRFSGSGSGTDFTLTISSLQPEDFATYYCQQSYTTPPTFGQGTKVEIKR |  |  | binding result [2]: binds
YW211.31.62 antibody (antibody, human IgG1, kappa, V domains shown) VH: EVQLVESGGGLVQPGGSLRLSCAASGFTFGYYYISWVRQAPGKGLEWVAEISPYSGSTYYADSVKGRFTISADTSKNTAYLQMNSLRAEDTAVYYCALRARPPIRLHPRGSVMDYWGQGTLVTVSS VL: DIQMTQSPSSLSASVGDRVTITCRASQDVSTAVAWYQQKPGKAPKLLIYSASFLYSGVPSRFSGSGSGTDFTLTISSLQPEDFATYYCQQSYTTPPTFGQGTKVEIKR |  |  | Kd [1]: 0.17 nM; IC50, inhibition of signaling in Wnt3a-stimulated HEK293 cells (LRP6 on HEK293 cells): ~0.1 µg/ml and ~0.6 nM
Wnt3a (ligand, human, UniProt P56704 19-352, looked up, also called purified human Wnt3a) SYPIWWSLAVGPQYSSLGSQPILCASIPGLVPKQLRFCRNYVEIMPSVAEGIKIGIQECQHQFRGRRWNCTTVHDSLAIFGPVLDKATRESAFVHAIASAGVAFAVTRSCAEGTAAICGCSSRHQGSPGKGWKWGGCSEDIEFGGMVSREFADARENRPDARSAMNRHNNEAGRQAIASHMHLKCKCHGLSGSCEVKTCWWSQPDFRAIGDFLKDKYDSASEMVVEKHRESRGWVETLRPRYTYFKVPTERDLVYYEASPNFCEPNPETGSFGTRDRTCNVSSHGIDGCDLLCCGRGHNARAERRREKCRCVFHWCCYVSCQECTRVYDVHTCK |  |  | binding result [3]: binds
